Experiment [1] concerns the target T1, human GLP-1 receptor (full length, on cells) (human, UniProt P43220 24-463). Briefly: displacement of 3 nM 125I GLP-1 from HEK293F cells over-expressing human GLP-1R, overnight at 4 C; IC50 fitted directly from displacement of 3 nM 125I GLP-1.
Experiment [2] deals with T1, human GLP-1 receptor (full length, on …). Briefly: cell-based or functional assay.
The target is the same in experiment [3]. The experiment in a line: calculated from the 125I GLP-1 displacement IC50, assuming a GLP-1 Kd of 3 nM and competitive inhibition; Ki derived from the IC50, assuming GLP-1 Kd of 3 nM and competitive inhibition.
Experiment [4] concerns the target T2, mouse IL-18 (biotinylated control protein) (mouse, UniProt P70380 36-192, biotinylated (site not stated)).
T2 sequence (looked up): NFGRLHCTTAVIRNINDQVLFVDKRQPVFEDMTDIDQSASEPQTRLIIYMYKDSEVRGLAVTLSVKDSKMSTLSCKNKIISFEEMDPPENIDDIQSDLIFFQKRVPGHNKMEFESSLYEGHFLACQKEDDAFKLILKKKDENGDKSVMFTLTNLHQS
The experiment in a line: neutravidin capture ELISA. The protocol:
(§1) The first characterization assay was a neutravidin capture assay. 96-well Maxisorp plates were coated (100 μl/well) with 5 μg/ml of neutravidin in PBS and were incubated at 4° C. overnight. Coated plates were washed with TBST. […] Plates were washed with TBST and blocked with 300 μl/well of 1× Chemiblocker for 1 hour at RT. Plates were washed with TBST. […] Plates were washed with TBST. Plates were treated for 1 hour at RT with 100 μl/well of goat anti-human IgG (H+L)-AP detection antibody diluted 1:5000 in TBST. AttoPhos substrate (1:5) detected AP activity.
A general note: In an ELISA, binding on a coated surface is turned into a signal by an enzyme label.

Experiment [5] addresses T3, mouse IL-23 (biotinylated control protein) (mouse, UniProt Q9EQ14 22-196; P43432 23-335, biotinylated (site not stated)).
T3 sequence (looked up) 1: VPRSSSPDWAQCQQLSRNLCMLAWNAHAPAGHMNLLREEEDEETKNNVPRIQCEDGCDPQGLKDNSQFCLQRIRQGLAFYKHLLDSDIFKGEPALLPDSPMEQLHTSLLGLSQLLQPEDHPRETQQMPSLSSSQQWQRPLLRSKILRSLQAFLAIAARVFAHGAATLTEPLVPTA
T3 sequence (looked up) 2: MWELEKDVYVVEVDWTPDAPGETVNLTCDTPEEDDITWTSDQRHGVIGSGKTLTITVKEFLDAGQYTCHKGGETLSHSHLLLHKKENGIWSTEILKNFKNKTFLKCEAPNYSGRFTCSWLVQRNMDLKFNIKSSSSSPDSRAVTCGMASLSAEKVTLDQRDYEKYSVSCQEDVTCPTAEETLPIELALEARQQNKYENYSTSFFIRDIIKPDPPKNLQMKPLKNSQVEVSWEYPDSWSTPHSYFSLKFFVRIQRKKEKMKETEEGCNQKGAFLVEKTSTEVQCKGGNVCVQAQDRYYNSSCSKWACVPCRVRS
The experiment in a line: neutravidin capture ELISA. The method, then:
as §1

Experiment [6] deals with rat transferrin (biotinylated control protein) (rat, UniProt P12346 20-698, biotinylated (site not stated)). The experiment in a line: neutravidin capture ELISA. The protocol: as §1
The target in experiment [7] is T4, mouse IL-12 (biotinylated control protein) (mouse, UniProt P43431 23-215; P43432 23-335, biotinylated (site not stated)).
T4 sequence (looked up) 1: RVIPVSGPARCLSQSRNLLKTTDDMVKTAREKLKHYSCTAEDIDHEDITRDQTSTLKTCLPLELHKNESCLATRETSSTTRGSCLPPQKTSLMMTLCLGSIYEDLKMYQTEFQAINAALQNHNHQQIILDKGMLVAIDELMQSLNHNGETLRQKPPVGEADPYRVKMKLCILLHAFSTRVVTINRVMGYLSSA
T4 sequence (looked up) 2: T3 sequence (looked up) 2
The experiment in a line: neutravidin capture ELISA. The protocol: as §1

rat transferrin (biotinylated control protein), sequence (P12346 20-698 limits assumed): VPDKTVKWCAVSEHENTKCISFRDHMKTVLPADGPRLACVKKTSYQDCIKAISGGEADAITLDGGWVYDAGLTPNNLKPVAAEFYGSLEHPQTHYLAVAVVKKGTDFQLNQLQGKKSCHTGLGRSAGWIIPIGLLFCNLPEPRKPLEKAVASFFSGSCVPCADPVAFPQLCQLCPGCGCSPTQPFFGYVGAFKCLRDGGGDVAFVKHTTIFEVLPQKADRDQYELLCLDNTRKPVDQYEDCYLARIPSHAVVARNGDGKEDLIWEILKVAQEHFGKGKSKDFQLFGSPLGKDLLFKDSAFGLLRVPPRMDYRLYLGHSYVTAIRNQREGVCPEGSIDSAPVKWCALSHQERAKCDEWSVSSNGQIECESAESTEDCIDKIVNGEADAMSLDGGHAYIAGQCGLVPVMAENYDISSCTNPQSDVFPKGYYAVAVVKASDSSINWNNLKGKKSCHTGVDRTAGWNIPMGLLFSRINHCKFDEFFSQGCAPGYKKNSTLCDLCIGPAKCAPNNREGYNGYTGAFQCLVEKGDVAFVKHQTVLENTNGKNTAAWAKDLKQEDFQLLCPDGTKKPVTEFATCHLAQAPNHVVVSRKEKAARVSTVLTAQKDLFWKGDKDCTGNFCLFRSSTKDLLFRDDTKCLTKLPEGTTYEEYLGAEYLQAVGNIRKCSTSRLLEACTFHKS

B1: PHD 191 (format not stated in the assay) (antibody, V domains shown)
VH: QVELVQSGAEVKKPGSSVKVSCKASGGTFSAIHWVRQAPGQGLEWMGGIIPIFGMADYAQKFQGRVTITADESTSTAYMELSSLRSEDTAVYYCARTDYGFRALDYWGQGTLVTVSS
VL: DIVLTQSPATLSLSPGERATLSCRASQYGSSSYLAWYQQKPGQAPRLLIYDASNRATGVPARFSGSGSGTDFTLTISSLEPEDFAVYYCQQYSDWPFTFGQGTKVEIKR
As to B1, in experiment [1], the 50% inhibitory concentration (IC50) – broadly, the point on the concentration scale where inhibition reaches its midpoint – turned out to be 48.5 nM. Moreover, the “IC50 of inhibition of GLP-1 dependent cAMP accumulation (0.3 nM GLP-1, HEK293F cells over-expressing human GLP-1R)” value in experiment [2] worked out at 3.3 nM. Also, the Ki (commonly the equilibrium dissociation constant of an inhibitor or competing ligand from its target) in experiment [3] was roughly 20 nM.

B2: PHD 191 mAb, human IgG1 / human kappa (antibody, V domains shown)
VH: B1 VH
VL: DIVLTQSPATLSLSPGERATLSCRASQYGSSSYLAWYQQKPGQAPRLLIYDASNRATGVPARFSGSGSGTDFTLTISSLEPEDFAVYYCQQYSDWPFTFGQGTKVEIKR
notes: The human IgG1/kappa format is inferred from the goat anti-human IgG (H+L) detection antibody
With B2, the binding result in experiment [4], in experiment [5], in experiment [6] and in experiment [7] was “no binding (tested: starting at 5 µg/ml)” throughout.
